Positions count from the first letter of the chain named. In names and notes the source's numbering stands.
B1: EcoRV Q69E: EcoRV restriction enzyme with mutation Q69E (protein, UniProt P04390 2-245, looked up, variant Q69E)
Type II restriction enzyme …: SLRSDLINALYDENQKYDVCGIISAEGKIYPLGSDTKVLSTIFELFSRPIINKIAEKHGYIVEEPKQENHYPDFTLYKPSEPNKKIAIDIKTTYTNKENEKIKFTLGGYTSFIRNNTKNIVYPFDQYIAHWIIGYVYTRVATRKSSLKTYNINELNEIPKPYKGVKVFLQDKWVIAGDLAGSGNTTNIGSIHAHYKDFVEGKGIFDSEDEFLDYWRNYERTSQLRNDKYNNISEYRNWIYRGRK
B2: EcoRV N70D: EcoRV restriction enzyme with mutation N70D (protein, UniProt P04390 2-245, looked up, variant N70D)
Type II restriction enzyme …: B1 Type II restriction enzyme … with E68Q, N69D
B3: BamHI G91S: BamHI restriction enzyme with mutation G91S (protein, UniProt P23940 1-213, looked up, variant G91S)
Type II restriction enzyme …: MEVEKEFITDEAKELLSKDKLIQQAYNEVKTSICSPIWPATSKTFTINNTEKNCNGVVPIKELCYTLLEDTYNWYREKPLDILKLEKKKGSPIDVYKEFIENSELKRVGMEFETGNISSAHRSMNKLLLGLKHGEIDLAIILMPIKQLAYYLTDRVTNFEELEPYFELTEGQPFIFIGFNAEAYNSNVPLIPKGSDGMSKRSIKKWKDKVENK
B4: Eco57I D78N: Eco57I restriction enzyme with mutation D78N (protein, UniProt P25239 1-998, looked up, variant D78N)
Type II restriction enzyme …: MNKKDQLQRLIDKYKSDIDYYRSARYNETQLRTDFLDQLFLILGWDITNAAGKPTNEREVLVEEGLKARAGENTKKPNYTFRLFSERKFFLEAKKPSVDISTTIEPALQVRRYGFTAKLKISVLSNFEYTAIYDCSNQVKETDSVANSRIKLYHFTELVDKFDEINNLIGRESVYTGHFDNEWSEIENKILRFSVDDLFLKQINDWRLLLANEFLQIKNELPEEKLNDLVQNYINSIVFLRVCEDRDLEEYETLYHFAQDKDFQSLVKKLKSSDKKYNSGLFSLEYIDELLSNANSCIWSIIEQLYFPQSTYSFSVFSSDILGNIYEIFLSEKVRIDELGNVKIQPKEEHIDRDVVTTPTHIVKEIIRNTVVEYCKGKSDIEILNSKFADIACGSGAFIIEAFQFIQDILIDYYIQNDKSKLQQISEHTYKLKFEVKREILCKCIYGIDKDYNATKACTFGLLLKLLEGETTETIGKDTPILPALDTNILFGNSLIDSGDKVKQEDIFSINPFDLTNYQFDVIVGNPPYMATEHMNQLTPKELDIYKRKYKSAYKQFDKYFLFIERSIQILKEYGYLGYILPSRFIKVDAGKKLRKFLSENKYLSKLISFGSHQVFKNKTTYTCLLFLNKENHDNFSFYEVKDFKKWLTREDKYLLSSTYQTSSLDSDTWVLEKKINDILKLMFSKSEQLGNIVGKSNVANGIQTSANKYYIHKEIKSENGFIYFEYDGIEYHIEKELTRPYFETNRSGDDSFYTYKDVEPNSFVVYPYKKVGERIQFIEYDELKRQYPKLFEFLQVVKVHLNDKKRSIKPDPTGPNEWYRYGRSQALENCDVDQKLIVGILSNGYKYSIDNHRTFVSSGGTAGYSIINIPNNVRYSIYYIQAILTSKYLEWFASIYGDIFRGRFVARGTKVQTRMPIPTIDFDDPKQKEIHDTISSKQQYLNKLYSQTQKSADRDKIIFERQFEQEKIQMDYLIKNLFDLGDLDSEIPTVEDLYKNL
B5: Eco57I E92Q: Eco57I restriction enzyme with mutation E92Q (protein, UniProt P25239 1-998, looked up, variant E92Q)
Type II restriction enzyme …: B4 Type II restriction enzyme … with N78D, E92Q

Key:
[1] = test system: sera binding to N6 mA coated ELISA plates; assay: Competitive ELISA of antisera on N6 mA-BSA coated wells; set-up: species or system mice; conditions: 100 ng of competitor
Experimental: Competitive ELISA were performed as previously described. Itoh, K., M. Mizugaki, and N. Ishida, Preparation of a monoclonal antibody specific for 1-methyladenosine and its application for the detection of elevated levels of 1-methyladenosine in urines from cancer patients. Jpn J Cancer Res, 1988. 79(10): p. 1130-8. Wells were coated with the N6 mA-BSA conjugate ensuring that binding activity was not directed against the KLH component of the immunogen. Specificity was determined by incubating the antisera with either N6-Methyl-2-deoxyadenosine (specific inhibitor for the desired activity) or 2-Deoxyadenosine 5-monophosphate and adding it to the coated well. When antisera bound to the coated well, no competition was present.

[2] = test system: nucleic acid recognition or cleavage site; conditions: mutant restriction enzyme relative to wild type; cited from earlier work

Molecule | inhibition of sera binding to N6 mA coated ELISA plates [1] [%] | % of WT cleavage activity [2] [%]
CNc1ncnc2c1ncn2[C@H]1C[C@H](O)[C@@H](CO)O1 [N6 mA, N6-Methyl-2-deoxyadenosine] | 50 | –
B1 | – | <0.1
B2 | – | 0
B3 | – | 1
B4 | – | <0.1
B5 | – | <0.1

Source: patent US10190113B2, “Methods and compositions for segregating target nucleic acid from mixed nucleic acid samples” (FLIR DETECTION, INC., priority 2011, dated 2019)
